In one data set the test system is ComR. Nature of the data set: Fluorescence polarization competition assay with unlabeled DNA probes. It is filed as binding. The settings on record: 1.5 µM ComR, 10 µM ComS or XIP, 1 nM labeled PcomX DNA; PcomS vs PcomX. On the procedure:
FIG 5 ComS and XIP interact with ComR to bind the comX promoter. A fluorescence polarization assay testing interaction of ComS and XIP peptides with ComR and the PcomX transcriptional activation site was performed. The DNA probe was labeled with a Bodipy FL-X fluorophore. (A) Titration of ComR into a solution containing 10 µM XIP (blue) or full-length ComS (green), labeled DNA probe (1 nM), and 0.05 mg ml^−^1 salmon DNA. The negative control (black) contained no ComS or XIP peptide. (B) Competition assay in which unlabeled promoter sequence DNA was titrated into a solution containing ComR (1.5 µM), fluorescent DNA probe (1 nM), and peptide (either ComS or XIP, 10 µM). Unlabeled PcomX DNA was used with XIP (blue) and ComS (green). An unlabeled PcomS probe was also tested for its ability to compete with the fluorescent PcomX probe in the presence of XIP (red) and ComS (gold). […]
Competing unlabeled probe assays were performed with 1.5 µM ComR in the same buffer containing 1 nM PcomX fluorescent DNA and 10 µM SHP (either ComS or XIP). […] Reaction mixtures were again incubated at 37°C for 20 min before polarization readings were taken. In all FP experiments, reading was performed three times on the same plate to estimate instrument error. […]
In general terms: Fluorescence polarisation rises when a labelled molecule tumbles more slowly, as on binding a larger partner.

Data set [1] has as its target ComS (full-length, 17 residues), synthetic (Streptococcus mutans). Nature of the data set: fluorescence polarisation; ComR titrated into 1 nM Bodipy FL-X-labelled PcomX stem-loop DNA probe with 10 µM XIP or ComS, 0.05 mg/ml salmon DNA, 1 mM EDTA, 37°C 20 min; together with competition by unlabeled DNA at 1.5 µM ComR; read-out is on the DNA probe, k1 and n of the ComR/peptide complex come from the fit of a two-step cooperative model.

In data set [2] the target is XIP (sigX-inducing peptide), synthetic (Streptococcus mutans). Described as above.
The target of data set [3] is ComR;XIP (Streptococcus mutans UA159;Streptococcus mutans) (UniProt Q8DWI6). Nature of the data set: fluorescence polarization. To be noted: Previously described reaction buffer (ref 53; composition not given) + 1 mM EDTA, 0.05 mg/ml salmon DNA, 1 nM probe, 37 C, 20 min; ComR dialyzed into PBS pH ….
Data set [4] concerns the target T1, ComR;ComS (Streptococcus mutans …, UniProt Q8DWI6; 1-304;, |). As to the kind of experiment: competition (fluorescence polarization); 1.5 uM ComR, 10 uM ComS, 1 nM labeled PcomX; affinity appears identical to PcomX; Previously described reaction buffer (ref 53; composition not given) + 1 mM EDTA, 0.05 mg/ml salmon DNA, 1 nM probe, 37 C, 20 min; ComR dialyzed into PBS pH 7.4. The settings on record: tags: His6 tag (pET-45b(+), N-terminal) cleaved with EKMax;; chain copies: 2;2; hairpin, 20 bp stem, CCCCC loop.

In data set [5] the target is T1, ComR;ComS. As to the kind of experiment: fluorescence polarization; 10 uM ComS; k2 of two-step model (k1 = 3.2 uM, n = 2.5), global fit with competition; not precisely determined, Text S3 gives k2 range 30-200 nM; Previously described reaction buffer (ref 53; composition not given) + 1 mM EDTA, 0.05 mg/ml salmon DNA, 1 nM probe, 37 C, 20 min; ComR dialyzed into PBS pH 7.4. The settings on record: tags: His6 tag (pET-45b(+), N-terminal) cleaved with EKMax;; chain copies: 2;2; label: 5' Bodipy FL-X; hairpin, 20 bp stem, CCCCC loop.

{BodipyFLX} = Bodipy FL-X fluorophore label on the DNA probe

Consider five molecules from PMC6211226, “Intracellular Signaling by the comRS System in Streptococcus mutans Genetic Competence” (mSphere, 2018).

In the case of “PcomX: self-annealing stem-loop DNA, 5′-ATGGGACATTTATGTCCTGTCCCCCACAGGACATAAATGTCCCAT-3′ (5′-Bodipy FL-X in labeled probe) (DNA, 5' {BodipyFLX}, backbone and methylation of C not given here)”, the “affinity of unlabeled probe for ComR by competition” value with ComR is given as “appear to have identical levels of affinity for ComR”.

What is called Kd is the free concentration of one partner at which half of the binding sites on the other are occupied at equilibrium, for simple one-to-one binding. As to “ComR (native, histidine tag cleaved) (receptor)”, in data set [1], the Kd is 3200 nM and the n (order of multimerization of the ComR/peptide complex, two-step model) was determined as 2.5. Also, in data set [2], the Kd came to 7300 nM and the n (order of multimerization of the ComR/peptide complex, two-step model) worked out at 2.4.

Turning to “ATGGGACATTTATGTCCTGTCCCCCACAGGACATAAATGTCCCAT [PcomX stem-loop probe]”, the dissociation constant Kd in data set [3] stood at 33 nM.

Take ACGGGACATAAATGTCCTGTCCCCCACAGGACATTTATGTCCCGT (structured_DNA) [PcomS stem-loop, unlabeled]: the binding result in the data set with ComR;ComS [4] is on record as “binds”.

Take ATGGGACATTTATGTCCTGTCCCCCACAGGACATAAATGTCCCAT (structured_DNA) [PcomX stem-loop probe]: the Kd with ComR;ComS [5] came out at 2.2 nM.
